Reference: patent publication US20050244966A1, “Insulin producing cells” (Ramot At Tel Aviv University Ltd., priority 2003, published 2005)

What was measured:
FH-B-TPN cells [1] = test: Insulin content of FH-B-TPN cells (RIA/ELISA of cell extracts); assay type: cell-based, human; conditions: for Insulin content: RIA; for Fold increase (insulin content): vs CM
Experimental: FH cells were isolated and cultured as described (19), in Dulbecco's modified Eagle's medium containing 25 mM glucose and supplemented with 10% fetal bovine serum (FBS), 100 U/ml penicillin, 100 μg/ml streptomycin, 5 μM hydrocortisone, and 5 μg/ml insulin. A subclone of FH cells that was stably transduced with hTERT, designated FH-B-hTERT (FH-B), was cultured in the same medium, as described (20). FH-B cells transduced with the Pdx1 gene (see below), designated FH-B-TPN cells, were maintained in the same culture medium, with the exception of hydrocortisone and insulin (complete medium CM). For incubation in serum-free medium, the cells were placed in DMEM containing antibiotics, in the presence of 100 ng/ml insulin, 55 ng/ml transferrin, and 50 pg/ml selenium (ITS, Sigma). For all experiments activin A (Cytolab/PreproTech Asia, Rehovot, Israel) was added at a final concentration of 4 nM. except for those aimed at promoting differentiation of FH-B-TPN cells towards the beta-cell phenotype. There, addition of Act-A, as well as betacellulin (BTC, R&D Systems, Minneapolis, Minn.), nicotinamide (NA), exendin-4, and hepatocyte growth factor (HGF) (the last 3 compounds from Sigma-Aldrich) was at concentrations detailed herein below.
(§1) Insulin secretion from FH-B-TPN cells was measured by static incubation as previously described (2). Cells were plated in 24-well plates at 10^5 cells per well. The cells were preincubated for 1 hour in Krebs-Ringer buffer (KRB), followed by incubation for the indicated period of time in KRB containing 0.5 mM 1-isobutyl 3-methylxanthine (IBMX) and glucose at various concentrations. The cells were then extracted in acetic acid, and the amount of insulin in the buffer and cell extract was determined by radioimmunoassay (RIA) using the INSIK-5 kit (DiaSorin, Vercelli, Italy) according to the manufacturer. This assay has <20% crossreactivity with proinsulin. In addition, insulin content was determined using an ELISA kit (Diagnostic Systems Laboratories, Webster, Tex. or (Mercodia, Uppsala, Sweden), which recognizes only mature insulin. Insulin content was normalized to total cellular protein, measured by the Bio-Rad (Hercules, Calif.) Protein Assay kit. Human C-peptide in the cell extract was determined using a RIA kit (DiaSorin, Vercelli, Italy) or ELISA kit (Mercodia, Uppsala, Sweden) according to the manufacturers.

FH-B-TPN cells [2] = test: Human C-peptide in cell extract and culture medium (ELISA); assay type: cell-based; conditions: SFM (6 d) then 3 nM Act-A in SFM (3 d)
Experimental: as §1

FH-B-TPN cells [3] = test: RT-PCR analysis of gene expression in FH-B-TPN cells; assay type: cell-based, human; conditions: 4 nM activin A; FIG. 7
Experimental: Total RNA was extracted from cultured cells, mature human hepatocytes (obtained from Incara Cell Technologies, North Carolina), and human pancreatic islets (obtained through the Juvenile Diabetes Research Foundation Islet Distribution Program), using commercial kits (High Pure RNA isolation kit, Roche Molecular Biochemicals, Mannhein, Germany; Trizol Reagent, Invitrogen Life Technologies, Carlsbad, Calif.).
Specific transcripts were analyzed with Promega (Madison, Wis.) RT-PCR kit or GeneAmp Gold RNA PCR kit (Perkin Elmer Corp., Indianapolis, Ind.) or Superscript III RT-PCR (Invitrogene Life Technologies, Carlsbad, Calif.) according to the manufacturers. The absence of DNA contamination in RNA samples was confirmed with PCR primers flanking an intron. cDNA was amplified for 40 cycles (94° C. for 45 sec; annealing under conditions indicated in Table 1 below for 45 sec; 72° C. for 40 sec), using the primer pairs listed in Table 1 below.
PCR products were separated by electrophoresis in 1.5%-2.5% agarose gels and visualized by ethidium bromide staining.

FH-B-TPN cells [4] = test: Cell doubling time by cell counting; TUNEL assay; assay type: cell-based, human
From the text: The cell doubling time, as determined by cell counting, was not affected by Act-A treatment in CM. […] No apoptotic cells were detected using a TUNEL assay under any of the conditions (data not shown).

FH-B-TPN cells [5] = test: Immunofluorescence analyses of protein expression in FH-B-TPN cells; assay type: cell-based, human; conditions: 6 days in serum-free medium with ITS and activin A; FIG. 8
Experimental: FH-B-TPN cells plated in 6-well plates on sterilized coverslips were fixed in 4% paraformaldehyde. For cytoplasmic antigens, cells were blocked for 10 min at room temperature in 5% bovine serum albumin, 5% FBS and 0.1% Triton X-100, and stained with the antibodies as detailed in Table 2 diluted in blocking solution, for 1 hour at room temperature.
For immunostaining of nuclear antigens, cells were permeabilized in 0.25% NP40 for 10 min at room temperature prior to blocking, followed by incubation with the primary antibody as detailed in Table 2 hereinabove. The stained cells were photographed under a Zeiss confocal microscope. FH-B, Cos7 or 293T cells were used as negative controls. Nuclei were visualized with DAPI (Roche) staining for 5 minutes at room temperature. Kidney tissue was fixed in 4% paraformaldehyde, embedded in paraffin, and sectioned. Sections were rehydrated, washed in PBS, and unmasked (if needed) in Unmasking Solution (Vector Laboratories, Burlingame, Calif.) according to the manufacturer. Sections were blocked for 2 h in 0.2% Tween 20 and 0.2% gelatin, incubated overnight at 4° C. with primary antibodies and 2 h at room temperature with the secondary antibodies as detailed in Table 2 hereinabove, stained with DAPI, and mounted. BrdU staining was performed as previously described (28b).

[6] = FH-B-TPN cells, 4 nM in CM (6 d)
[7] = SFM (6 d) then 3 nM Act-A in SFM (3 d)

B1: betacellulin (protein, UniProt P35070 32-111, looked up)
Betacellulin: DGNSTRSPETNGLLCGDPEENCAATTTQSKRKGHFSRCPKQYKHYCIKGRCRFVVAEQTPSCVCDEGYIGARCERVDLFY
notes: betacellulin (R&D Systems), soluble factor
Insulin content (FH-B-TPN cells [1]; [6]): 264 ± 7 ng/10^6 cells | Fold increase (insulin content) (FH-B-TPN cells [1]; [6]): 1.4

B2: activin A (protein, UniProt P08476 311-426, looked up)
Inhibin beta A chain: GLECDGKVNICCKKQFFVSFKDIGWNDWIIAPSGYHANYCEGECPSHIAGTSGSSLSFHSTVINHYRMRGHSPFANLKSCCVPTKLRPMSMLYYDDGQNIIKKDIQNMIVEECGCS
Insulin content compared with serum-free medium without activin A (FH-B-TPN cells [1]; 6 days in serum-free medium supplemented with both ITS and activin A): further doubling | Insulin content (FH-B-TPN cells [1]; [6]): 729 ± 55 ng/10^6 cells | Insulin content (FH-B-TPN cells [1]; FH-B-TPN cells, Act-A 3 nM in CM (3 d) + CM (6 d), mean ± SD (n = 3)): 1661 ± 319 ng/10^6 cells | Fold increase (insulin content) (FH-B-TPN cells [1]; FH-B-TPN cells, Act-A 3 nM in CM (3 d) + CM (6 d)): 8.8 | Insulin content (FH-B-TPN cells [1]; FH-B-TPN cells, Act-A 3 nM in CM (3 d) + SFM (6 d), mean ± SD (n = 3)): 1493 ± 229 ng/10^6 cells | Fold increase (insulin content) (FH-B-TPN cells [1]; FH-B-TPN cells, Act-A 3 nM in CM (3 d) + SFM (6 d)): 7.9 | Insulin content (FH-B-TPN cells [1]; FH-B-TPN cells, Act-A 3 nM in CM (3 d), mean ± SD (n = 3)): 1399 ± 269 ng/10^6 cells | Fold increase (insulin content) (FH-B-TPN cells [1]; FH-B-TPN cells, Act-A 3 nM in CM (3 d)): 7.4 | Insulin content (FH-B-TPN cells [1]; FH-B-TPN cells, Act-A 3 nM in SFM (3 d), mean ± SD (n = 3)): 2143 ± 179 ng/10^6 cells | Fold increase (insulin content) (FH-B-TPN cells [1]; FH-B-TPN cells, Act-A 3 nM in SFM (3 d)): 11.4 | Concentration giving maximal (optimal) increase in insulin content (FH-B-TPN cells [1]; FH-B-TPN cells, Act-A 1-8 nM in regular medium (CM) for 6 days, FIG. 9): 3 nM | Fold increase (insulin content) (FH-B-TPN cells [1]; FH-B-TPN cells, SFM (6 d) + Act-A 3 nM in SFM (3 d)): 33 | Increase over insulin content of cells incubated 9 days in SFM without Act-A (FH-B-TPN cells [1]; [7]): 2.6 fold | Insulin content as share of the cellular protein content (FH-B-TPN cells [1]; [7]): 6% | Insulin content relative to normal human pancreatic islets (FH-B-TPN cells [1]; [7]): about 60% | Share of stored insulin in the form of mature protein (ELISA vs RIA) (FH-B-TPN cells [1]; [7]): 95% | Human C-peptide secreted into the culture medium (FH-B-TPN cells [2]): 43.5±1.3 ng/10^6 cells | Human C-peptide levels in cells (FH-B-TPN cells [2]; ELISA): 5153±180 ng/10^6 cells | Glucagon mRNA (FH-B-TPN cells [3]): disappeared after an overnight treatment | PAX4 and GLUT2 mRNAs (FH-B-TPN cells [3]): appeared following 3 days of treatment | Cell doubling time compared with cells growing in CM (FH-B-TPN cells [4]): not affected | PP staining (FH-B-TPN cells [5]): disappeared | Percent of cells stained for GK, PC1/3, and PC2 (FH-B-TPN cells [5]): increase | Percent of cells stained for NGN3 (FH-B-TPN cells [5]): significant decrease | Percentage of cells stained for ISL1, NKX6.1, and NKX2.2 (FH-B-TPN cells [5]): significant increase
